Experimental data as given in PMC10907699, “The IRE1β-mediated unfolded protein response is repressed by the chaperone AGR2 in mucin producing cells” (The EMBO Journal, 2023).

B1: mouse AGR2 (21-175), wild-type [mouse] / MBP-hIRE1b_LD_(35-428)-AviTag-His7 [modified: biotin on the AviTag (endogenous biotinylation of a fraction of the protein in E. coli); biotin on the AviTag (endogenous biotinylation of a fraction of … (parent complex)
chain 1: KDTTVKSGAKKDPKDSRPKLPQTLSRGWGDQLIWTQTYEEALYRSKTSNRPLMVIHHLDECPHSQALKKVFAEHKEIQKLAEQFVLLNLVYETTDKHLSPDGQYVPRIVFVDPSLTVRADITGRYSNRLYAYEPSDTALLYDNMKKALKLLKTEL
chain 2: LRPENLLLVSTLDGSLHALSKQTGDLKWTLRDDPVIEGPMYVTEMAFLSDPADGSLYILGTQKQQGLMKLPFTIPELVHASPCRSSDGVFYTGRKQDAWFVVDPESGETQMTLTTEGPSTPRLYIGRTQYTVTMHDPRAPALRWNTTYRRYSAPPMDGSPGKYMSHLASCGMGLLLTVDPGSGTVLWTQDLGVPVMGVYTWHQDGLRQLPHLTLARDTLHFLALRWGHIRLPASGPRDTATLFSTLDTQLLMTLYVGKDETGFYVSKALVHTGVALVPRGLTLAPADGPTTDEVTLQVSGEREGSPSTAVRYPSGSVALPSQWLLIGHHELPPVLHTTMLRVHPTLGSGTAETRPPENTQAPAFFLELLSLSREKLWDSELHPEEKTPDSYLGL

Variants of: B1
Assay: BLI; HK buffer supplemented with 0.05% Triton X-100 and 1 mM TCEP; 30 °C; IRE1β LD probe immobilised on streptavidin biosensors; parent: 19 nM

Question: Which screen value does the source give for chain 1 C61E here?
Answer: 78.5 µM

Question: How did the screen value turn out when chain 1 C61S was run?
Answer: 124 µM

Variants of: B1
Assay: BLI; 90 µM AGR2 variant (highest concentration point); HK buffer supplemented with 0.05% Triton X-100 and 1 mM TCEP; 30 °C; parent: 0.6; read off a plot

Question: chain 1 C61E was tested. Which response did it give?
Answer: ~0.23 nm

Question: For chain 1 C61S, which response is on record?
Answer: ~0.3 nm
